One data set addresses T1, IRF4 DBD wild-type (Homo sapiens, UniProt Q15306 20-132).
T1 sequence: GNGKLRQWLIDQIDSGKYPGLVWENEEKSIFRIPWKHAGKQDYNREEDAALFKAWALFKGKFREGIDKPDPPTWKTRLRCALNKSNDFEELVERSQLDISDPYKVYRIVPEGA
The data set is described as follows: FP; FP: PBS + 0.05% Tween20, 5 nM DNA, 1 h, room temperature; SPR: Biacore S200, SA chip, protein 0.1-4500 nM, running buffer not given in material; errors are SD. The following applies: protein: recombinant; tags: N-terminal His8-linker-His8-TEV, cleaved; label: 3' fluorescein (FAM); hairpin, TTTT loop. (In SPR one partner is held on a chip, and binding of the other changes the refractive index at the surface.)

Data set [1] has as its target T2, IRF4 DBD L70V (Homo sapiens, UniProt Q15306 20-132, L70V).
T2 sequence: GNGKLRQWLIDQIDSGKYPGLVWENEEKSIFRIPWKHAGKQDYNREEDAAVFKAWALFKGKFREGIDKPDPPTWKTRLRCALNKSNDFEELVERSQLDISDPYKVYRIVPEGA
Described as above. The following applies: protein: recombinant; tags: N-terminal His8-linker-His8-TEV, cleaved; label: 3' fluorescein (FAM); hairpin, TTTT loop.

Another data set concerns the target T3, IRF4 DBD S114R (Homo sapiens, UniProt Q15306 20-132, S114R).
T3 sequence: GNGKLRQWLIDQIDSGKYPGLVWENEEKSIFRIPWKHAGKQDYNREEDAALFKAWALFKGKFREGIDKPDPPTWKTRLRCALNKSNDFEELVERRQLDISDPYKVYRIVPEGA
Described as above. The following applies: protein: recombinant; tags: N-terminal His8-linker-His8-TEV, cleaved; label: 3' fluorescein (FAM); hairpin, TTTT loop.

The target of data set [2] is T4, IRF4 DBD D106Y (Homo sapiens, UniProt Q15306 20-132, D106Y).
T4 sequence: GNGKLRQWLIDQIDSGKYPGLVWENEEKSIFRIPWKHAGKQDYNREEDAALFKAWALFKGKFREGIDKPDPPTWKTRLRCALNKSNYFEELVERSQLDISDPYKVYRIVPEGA
The data set is described as above. The following applies: protein: recombinant; tags: N-terminal His8-linker-His8-TEV, cleaved; label: 3' fluorescein (FAM); hairpin, TTTT loop.

The target of another data set is T5, IRF4 DBD T95A (Homo sapiens, UniProt Q15306 20-132, T95A).
T5 sequence: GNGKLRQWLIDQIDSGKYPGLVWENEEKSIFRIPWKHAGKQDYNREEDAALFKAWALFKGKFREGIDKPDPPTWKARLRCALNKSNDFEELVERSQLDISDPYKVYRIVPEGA
The description is as above. The following applies: protein: recombinant; tags: N-terminal His8-linker-His8-TEV, cleaved; label: 3' fluorescein (FAM); hairpin, TTTT loop.

The target in the next data set is T6, IRF4 DBD K59N (Homo sapiens, UniProt Q15306 20-132, K59N).
T6 sequence: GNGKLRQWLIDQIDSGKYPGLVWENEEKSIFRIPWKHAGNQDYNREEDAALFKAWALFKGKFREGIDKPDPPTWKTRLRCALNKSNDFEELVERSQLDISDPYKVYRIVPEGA
The data set is described as follows: SPR two-state kinetic; FP: PBS + 0.05% Tween20, 5 nM DNA, 1 h, room temperature; SPR: Biacore S200, SA chip, protein 0.1-4500 nM, running buffer not given in material; errors are SD. The note with it: protein: recombinant; tags: N-terminal His8-linker-His8-TEV, cleaved; label: 3' biotin; hairpin, TTTT loop.

A further data set addresses T7, IRF4 DBD T95K (Homo sapiens, UniProt Q15306 20-132, T95K).
T7 sequence: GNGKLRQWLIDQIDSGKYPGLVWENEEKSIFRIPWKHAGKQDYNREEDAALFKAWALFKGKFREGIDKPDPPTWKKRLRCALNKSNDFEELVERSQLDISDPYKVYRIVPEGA
The description is as above. The note with it: protein: recombinant; tags: N-terminal His8-linker-His8-TEV, cleaved; label: 3' biotin; hairpin, TTTT loop.

Data set [3] addresses T2, IRF4 DBD L70V. The description is as above. The following applies: protein: recombinant; tags: N-terminal His8-linker-His8-TEV, cleaved; label: 3' biotin; hairpin, TTTT loop.
The next data set addresses T8, IRF4 DBD C99R (Homo sapiens, UniProt Q15306 20-132, C99R).
T8 sequence: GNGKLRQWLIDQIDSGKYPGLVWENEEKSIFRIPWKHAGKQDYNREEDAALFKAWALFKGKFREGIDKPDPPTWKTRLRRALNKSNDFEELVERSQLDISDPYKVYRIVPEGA
Described as above. The following applies: protein: recombinant; tags: N-terminal His8-linker-His8-TEV, cleaved; label: 3' biotin; hairpin, TTTT loop.

Data set [4] deals with T4, IRF4 DBD D106Y. The description is as above. The note with it: protein: recombinant; tags: N-terminal His8-linker-His8-TEV, cleaved; label: 3' biotin; hairpin, TTTT loop.
The target of the next data set is T9, IRF4 DBD D117H (Homo sapiens, UniProt Q15306 20-132, D117H).
T9 sequence: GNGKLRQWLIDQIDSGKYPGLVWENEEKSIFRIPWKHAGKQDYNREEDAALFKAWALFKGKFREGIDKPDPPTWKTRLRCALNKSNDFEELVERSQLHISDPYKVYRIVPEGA
The data set is described as above. The following applies: protein: recombinant; tags: N-terminal His8-linker-His8-TEV, cleaved; label: 3' biotin; hairpin, TTTT loop.

What is called Kd is a measure of binding affinity in units of concentration. With CTTGGTTTCACTTCCTGCGTTTTCGCAGGAAGTGAAACCAAG (structured_DNA) [IRE hairpin (FAM)], the Kd in the data set with IRF4 DBD wild-type is 565 ± 191 nM; with IRF4 DBD L70V [1] it was 127 ± 27 nM; with IRF4 DBD S114R it was 332 ± 162 nM; with IRF4 DBD D106Y [2], 219 ± 261 nM; in the data set with IRF4 DBD T95A, 105 ± 59 nM.

As to CTTGGTTTCACTTCCTGCGTTTTCGCAGGAAGTGAAACCAAG (structured_DNA) [IRE hairpin (biotin)], the Kd stood at 107 ± 133 nM with IRF4 DBD K59N; 913 ± 147 nM in the data set with IRF4 DBD T95K; 121 ± 111 nM with IRF4 DBD L70V [3]; 660 ± 317 nM with IRF4 DBD C99R; 135 ± 121 nM with IRF4 DBD D106Y [4]; 204 ± 131 nM in the data set with IRF4 DBD D117H.

The values above are taken from publication doi:10.1101/2025.03.12.642038, “Structural, biophysical and biological analysis and characterisation of IRF4 DNA-binding domain mutations associated with multiple myeloma”.
